B1: SAM and SH3 domain-containing protein 1, residues 630 to 700; numbered along this chain, O94885 (parent)
chain: GRPPQPKSVEDLLDRINLKEHMPTFLFNGYEDLDTFKLLEEEDLDELNIRDPEHRAVLLTAVELLQEYDSN

± gives the uncertainty stated by the source.

This series covers variants of B1. The experiment in a line: abundance fitness (aPCA) (normalised: wild type 0, dead -1); higher = more abundant; growth selection in yeast, the domain comes from the species named. The following applies: Homo sapiens.
GRPPQPKSVEDLLDRINLKEHMPTFLFNGYEDLDTFKLLEEEDLDELFIRDPEHRAVLLTAVELLQEYDSN [N48F]: the abundance fitness is -0.983 ± 0.19.
Consider GRPPQPKSVEDLLDRINLKEHMPQFLFNGYEDLDTFKLLEEEDLDELNIRDPEHRAVLLTAVELLQEYDSN [T24Q], for which the abundance fitness is -0.544 ± 0.064.
To GRPPQPKSVEDLLDRINLKEHMPTFLFNGYEDLDHFKLLEEEDLDELNIRDPEHRAVLLTAVELLQEYDSN [T35H] belongs 0.022 ± 0.047; to GRPPQPKSVEDLLDRINLKEHMPTFLFNGYEDLDMFKLLEEEDLDELNIRDPEHRAVLLTAVELLQEYDSN [T35M], -0.312 ± 0.059.
With GRPPQPKSVEDLLDRINLKEHMPTFLFNGYEDLDEFKLLEEEDLDELNIRDPEHRAVLLTAVELLQEYDSN [T35E] the figure was -0.211 ± 0.067; with GRPEQPKSVEDLLDRINLKEHMPTFLFNGYEDLDTFKLLEEEDLDELNIRDPEHRAVLLTAVELLQEYDSN [P4E], 0.237 ± 0.067; with GRPPQPKSVEDLLDRINLKEHMPTFLFNGYEDLDTFKLLEEEDLDELNFRDPEHRAVLLTAVELLQEYDSN [I49F], -0.851 ± 0.069.
With GRPPQPKSVEDLLDRINLKEHMPTFLFNGYEDLDTFKLLEEEDLDELNCRDPEHRAVLLTAVELLQEYDSN [I49C], the abundance fitness is -0.728 ± 0.072.
On to GRPPQPKSVEDLLRRINLKEHMPTFLFNGYEDLDTFKLLEEEDLDELNIRDPEHRAVLLTAVELLQEYDSN [D14R], for which the abundance fitness is -0.434 ± 0.055.
For the variant GRPPQPKSVEDLLDRINLKEHMPTFLFNGYEDLDTFKLLDEEDLDELNIRDPEHRAVLLTAVELLQEYDSN [E40D], the abundance fitness worked out at 0.011 ± 0.057.
With GRPPQPKSVEDLLDMINLKEHMPTFLFNGYEDLDTFKLLEEEDLDELNIRDPEHRAVLLTAVELLQEYDSN [R15M] the figure was 0.142 ± 0.042; with GRPPQPKSVEDLLDRINLKEHMPTFLFNGYEDKDTFKLLEEEDLDELNIRDPEHRAVLLTAVELLQEYDSN [L33K], -1 ± 0.13; with GRPPQPKSVEDLYDRINLKEHMPTFLFNGYEDLDTFKLLEEEDLDELNIRDPEHRAVLLTAVELLQEYDSN [L13Y], -0.905 ± 0.096.
Regarding GRPPQPKSVEDLPDRINLKEHMPTFLFNGYEDLDTFKLLEEEDLDELNIRDPEHRAVLLTAVELLQEYDSN [L13P], the abundance fitness is -0.71 ± 0.07.
For GRPPQPKSVEDLLDRINLKEHMPTFLQNGYEDLDTFKLLEEEDLDELNIRDPEHRAVLLTAVELLQEYDSN [F27Q], the abundance fitness was 0.393 ± 0.043.
With GRPPQPKSVEDLLDRINLKEHMPTFLINGYEDLDTFKLLEEEDLDELNIRDPEHRAVLLTAVELLQEYDSN [F27I] the figure was 0.157 ± 0.045; with GRPPQPKSVEDLLDRDNLKEHMPTFLFNGYEDLDTFKLLEEEDLDELNIRDPEHRAVLLTAVELLQEYDSN [I16D], -0.703 ± 0.15; with GRPPQPKSVEDLLDRINLKEHGPTFLFNGYEDLDTFKLLEEEDLDELNIRDPEHRAVLLTAVELLQEYDSN [M22G], -0.346 ± 0.042.
As for GRPPQPKSVEDLLDRINLKEHKPTFLFNGYEDLDTFKLLEEEDLDELNIRDPEHRAVLLTAVELLQEYDSN [M22K], the abundance fitness was -0.252 ± 0.055.
To GRPPQPKSVEDLLDRINLKEHMPTFLFNGYEDLDTFKLLEEEDLVELNIRDPEHRAVLLTAVELLQEYDSN [D45V] belongs -0.151 ± 0.041; to GRPPQPKSVEDLLDRINLKEHMPTFCFNGYEDLDTFKLLEEEDLDELNIRDPEHRAVLLTAVELLQEYDSN [L26C], -0.464 ± 0.073; to GRPPQPKSVEDLLDRINLKEHMPTFLFNGYEDLPTFKLLEEEDLDELNIRDPEHRAVLLTAVELLQEYDSN [D34P], -0.664 ± 0.056.
To GRPPQPKSVEDLLDRINLKEHMPTFLFNGYEDLATFKLLEEEDLDELNIRDPEHRAVLLTAVELLQEYDSN [D34A] belongs -0.145 ± 0.04; to GRPPQPKSVEDLLDRINLKEHMPTFLFNGYEDLNTFKLLEEEDLDELNIRDPEHRAVLLTAVELLQEYDSN [D34N], -0.123 ± 0.041.
With GRPPQPKSVEDLLDRINLKEHMWTFLFNGYEDLDTFKLLEEEDLDELNIRDPEHRAVLLTAVELLQEYDSN [P23W] the figure was -0.103 ± 0.061; with GRPPQPKSVEDLLDRINLKEHMGTFLFNGYEDLDTFKLLEEEDLDELNIRDPEHRAVLLTAVELLQEYDSN [P23G], 0.039 ± 0.043; with GRPPQPKSVEDLLDRINLKEHMPTILFNGYEDLDTFKLLEEEDLDELNIRDPEHRAVLLTAVELLQEYDSN [F25I], -0.687 ± 0.081.
For GRPPQPKSVEDLLDRINLKEHMPTKLFNGYEDLDTFKLLEEEDLDELNIRDPEHRAVLLTAVELLQEYDSN [F25K], the abundance fitness is -0.784 ± 0.071.
For the variant GRPPQPKSVEDLLDRINLNEHMPTFLFNGYEDLDTFKLLEEEDLDELNIRDPEHRAVLLTAVELLQEYDSN [K19N], the abundance fitness was -0.211 ± 0.047.
Take GRPPQPKSVEDLLDRINLKEHMPTFLFNGYEDLDTFKLLEAEDLDELNIRDPEHRAVLLTAVELLQEYDSN [E41A]: the abundance fitness was -0.075 ± 0.048.
With GRPPQPKSVEDLLDRIELKEHMPTFLFNGYEDLDTFKLLEEEDLDELNIRDPEHRAVLLTAVELLQEYDSN [N17E] the figure was -0.333 ± 0.063; with GRPPQPKSVEDLLDRINLKEHMPTFLFNGYEDLDTPKLLEEEDLDELNIRDPEHRAVLLTAVELLQEYDSN [F36P], -0.9 ± 0.092.
GRPPQPKSVEDLLDRINLKEHMPTFLFNGYEDLDTVKLLEEEDLDELNIRDPEHRAVLLTAVELLQEYDSN [F36V]: the abundance fitness is -0.495 ± 0.051.
With GRPPQPKSVEDLLDRINLKEHMPTFLFNGYEDLDTFKLLEEEDLDELNIRDPEHIAVLLTAVELLQEYDSN [R55I] the figure was -0.696 ± 0.078; with GRPPQPKSVEDLLDRINLKEHMPTFLFNGYEDLDTFKALEEEDLDELNIRDPEHRAVLLTAVELLQEYDSN [L38A], -0.063 ± 0.04.
With GRPPQPKSVEDLLDRINLKEHMPTFLFNGYEDLDTFKLKEEEDLDELNIRDPEHRAVLLTAVELLQEYDSN [L39K] the figure was -0.928 ± 0.11; with GRPPQPKSVEDLLDRINLKEHMPTFLFNGKEDLDTFKLLEEEDLDELNIRDPEHRAVLLTAVELLQEYDSN [Y30K], -0.901 ± 0.099; with GRPPQPKSVEDLLDRINLKEHMPTFLFNGYEDLDTFKLLEEEDLDELNIRDPEHRAVLLTMVELLQEYDSN [A61M], -0.324 ± 0.055.

Source of the values: the Human Domainome abundance scans (Beltran et al. 2025).
